From the Human Domainome abundance scans (Beltran et al. 2025)
± gives the uncertainty stated by the source.

B1: DnaJ homolog subfamily C member 5, residues 16 to 77; numbered along this chain, Q9H3Z4 (parent)
chain: LYHVLGLDKNATSDDIKKSYRKLALKYHPDKNPDNPEAADKFKEINNAHAILTDATKRNIYD

Variants of: B1
Assay: abundance fitness (aPCA) (normalised: wild type 0, dead -1); higher = more abundant; growth selection in yeast, the domain comes from the species named
Settings: Homo sapiens

Variant | abundance fitness
P33V | -0.225 ± 0.055
P33F | -0.351 ± 0.18
P33S | -0.121 ± 0.085
P33E | -0.035 ± 0.085
P33T | -0.098 ± 0.076
K9Q | -0.25 ± 0.17
K9I | -0.099 ± 0.19
K9A | 0.077 ± 0.082
K9S | -0.125 ± 0.076
K9V | -0.004 ± 0.073
K9F | -0.281 ± 0.11
K9D | -0.05 ± 0.14
K9E | 0.007 ± 0.07
K18W | -0.226 ± 0.091
K18Y | -0.333 ± 0.19
K18T | -0.025 ± 0.1
A38Y | -0.132 ± 0.14
A38D | -0.137 ± 0.099
A38W | -0.305 ± 0.073
A38M | -0.13 ± 0.097
A38L | -0.243 ± 0.069
L25A | 0.039 ± 0.066
L25Q | 0.024 ± 0.11
L25T | -0.025 ± 0.096

Variant | abundance fitness
L25M | -0.101 ± 0.078
L25N | -0.073 ± 0.11
L25H | -0.442 ± 0.23
L25S | -0.377 ± 0.08
L25F | -0.068 ± 0.085
L25G | -0.293 ± 0.064
L25W | -0.346 ± 0.088
T53W | -0.579 ± 0.077
T53A | -0.118 ± 0.072
T53I | -0.286 ± 0.087
T53K | -0.011 ± 0.086
K26Q | 0.032 ± 0.11
K26I | 0.244 ± 0.12
K26C | -0.318 ± 0.16
K26L | -0.075 ± 0.065
K26H | -0.239 ± 0.15
A55W | -0.413 ± 0.096
A55G | -0.151 ± 0.076
A55I | -0.406 ± 0.39
A55H | -0.287 ± 0.26
A55P | -0.036 ± 0.14
A55C | -0.37 ± 0.18
A11W | -1.24 ± 0.21
A11C | -0.182 ± 0.22

Variant | abundance fitness
A11L | -0.941 ± 0.15
A11T | -0.553 ± 0.16
D8P | 0.108 ± 0.12
D8A | -0.258 ± 0.069
D8M | -0.355 ± 0.08
D54L | -0.632 ± 0.1
D54R | -0.382 ± 0.095
D54F | -1.01 ± 0.21
D54M | -0.634 ± 0.14
D54N | 0.044 ± 0.13
A24C | 0.159 ± 0.074
A24Y | 0.208 ± 0.091
A24V | 0.126 ± 0.068
A24Q | -0.093 ± 0.076
A24G | -0.377 ± 0.075
A24L | -0.095 ± 0.058
L23A | -0.454 ± 0.11
L23G | -0.308 ± 0.075
L23W | -0.423 ± 0.084
L23Q | -0.334 ± 0.1
K43F | 0.349 ± 0.17
K43R | -0.263 ± 0.15
K43Y | 0.364 ± 0.29
K43Q | 0.362 ± 0.17

Variant | abundance fitness
K43E | -0.34 ± 0.18
K43H | 0.519 ± 0.48
K43W | -0.276 ± 0.15
D14N | -0.151 ± 0.15
D14R | -0.359 ± 0.056
D14S | -0.242 ± 0.07
D14F | -0.848 ± 0.3
D14V | -0.341 ± 0.074
D14C | -0.549 ± 0.11
D14T | -0.346 ± 0.099
N59Y | -0.471 ± 0.17
N59F | -0.151 ± 0.16
N59R | -0.107 ± 0.072
N59I | -0.044 ± 0.12
N59G | 0.101 ± 0.077
N59A | 0.197 ± 0.12
N59H | -0.125 ± 0.14
L7P | -0.231 ± 0.14
L7T | -0.721 ± 0.14
L7H | -0.54 ± 0.36
L7N | -0.434 ± 0.22
I45D | -0.311 ± 0.2
I45P | -0.425 ± 0.13
I45R | -0.623 ± 0.068

Variant | abundance fitness
I45M | -0.418 ± 0.084
I45S | -0.47 ± 0.065
I45L | -0.026 ± 0.063
N46W | -0.778 ± 0.13
N46K | -0.058 ± 0.14
N46E | 0.093 ± 0.12
N46H | -0.081 ± 0.11
N46C | 0.174 ± 0.2
N46Y | -0.312 ± 0.45
N46P | -0.653 ± 0.13
I16R | -0.586 ± 0.058
I16H | -0.723 ± 0.13
I16V | -0.238 ± 0.072
I16E | -0.305 ± 0.11
D40W | 0.046 ± 0.084
D40I | 0.224 ± 0.13
S13L | -0.04 ± 0.073
S13E | -0.023 ± 0.087
S13Y | -0.188 ± 0.11
S13A | -0.116 ± 0.082
S13W | -0.336 ± 0.098
S13C | -0.215 ± 0.12
N32H | -0.009 ± 0.1
N32A | -0.349 ± 0.19

Variant | abundance fitness
N32V | -0.396 ± 0.078
N32D | -0.282 ± 0.15
N32W | -0.179 ± 0.081
N32P | -0.691 ± 0.19
N32S | -0.3 ± 0.081
K41W | -0.4 ± 0.095
K41C | -0.598 ± 0.21
K41Y | -0.254 ± 0.21
K41T | -0.197 ± 0.11
K41F | -0.447 ± 0.17
K41E | -0.311 ± 0.08
D15C | -0.24 ± 0.2
D15S | -0.382 ± 0.092
D15E | -0.067 ± 0.12
D15F | -0.689 ± 0.23
D15I | -0.328 ± 0.14
D15P | -0.643 ± 0.12
D62Q | -0.58 ± 0.38
D62V | -0.662 ± 0.14
L5V | -0.906 ± 0.12
L5Y | -0.606 ± 0.38
L5S | -0.267 ± 0.11
L5K | -0.444 ± 0.14
L5H | 0.038 ± 0.35

Variant | abundance fitness
L5M | -0.32 ± 0.26
L5Q | 0.084 ± 0.13
L5R | -0.889 ± 0.1
L5E | -0.14 ± 0.1
H49P | -0.423 ± 0.11
H49R | 0.029 ± 0.078
H49E | -0.362 ± 0.14
H49T | -0.26 ± 0.098
H49N | -0.062 ± 0.17
H49S | -0.279 ± 0.088
H49D | -0.4 ± 0.13
A48M | -1.06 ± 0.24
H3A | -0.14 ± 0.096
H3M | -0.153 ± 0.1
H3I | -0.423 ± 0.13
H3S | 0.147 ± 0.082
H3E | -0.114 ± 0.13
A50Q | -0.294 ± 0.11
A50K | -0.091 ± 0.11
A50S | 0.059 ± 0.078
A50T | -0.072 ± 0.1
A50R | -0.009 ± 0.059
A50Y | -0.604 ± 0.17
